{
  "source": "patent US20200407673A1",
  "about": "“DEVICE, KIT AND METHOD FOR THREE-DIMENSIONAL CELL CULTURE” (RIGENERAND S.R.L., priority 2018, published 2020)",
  "molecules": {"B1": {"name": "sTRAIL: soluble TNF-related antitumor biological agent apoptosis-inducing ligand; biological cytotoxic agent (protein, UniProt P50591 39-281, looked up)", "extracellular domain": "TNELKQMQDKYSKSGIACFLKEDDSYWDPNDEESMNSPCWQVKWQLRQLVRKMILRTSEETISTVQEKQQNISPLVRERGPQRVAAHITGTRGRSNTLSSPNSKNEKALGRKINSWESSRSGHSFLSNLHLRNGELVIHEKGFYYIYSQTYFRFQEEIKENTKNDKQMVQYIYKYTSYPDPILLMKSARNSCWSKDAEYGLYSIYQGGIFELKENDRIFVSVTNEHLIDMDHEASFFGAFLVG", "modifications": "extracellular domain soluble form"}},
  "test_system": "luciferase positive tumor cells",
  "experiment": "efficacy of sTRAIL on luciferase-positive tumor cells grown in the three-dimensional culture device, luciferin light signal",
  "type": "cell-based",
  "conditions": "cells grown 72 hours in the device, then 24 hours of treatment; luciferin substrate, luminometer",
  "method": "In the culture device 1 the tumor cells “C” which are luciferase-positive are grown for 72 hours and it is possible to monitor the extent of the growth and estimate the number of tumor cells “C” grown inside the culture device 1 by adding the luciferin substrate and detecting the light signal, as shown in the diagram in FIG. 20.\nThe effectiveness of the sTRAIL biological agent, which is added to the culture medium and is loaded inside the culture device 1, is tested on the tumor mass inside the culture device 1 evaluated at 72 hours.\nThe efficacy of the treatment is determined after 24 hours by adding the luciferin substrate which is metabolized by the viable tumor cells “C” by the action of the luciferase.\nSince the cells “C” that are dead or in apoptosis no longer produce the enzyme, they cannot metabolize the substrate and, consequently, they are no longer able to generate a light signal.",
  "data": [
    {"molecule": "B1", "values": [
      {"measurement": "light signal (RLUs, proportional to viable cells) after treatment", "result": "light signal is reduced in intensity"}
    ]}
  ]
}
